# Measured values from the Immune Epitope Database (IEDB).
# pKd: −log10 of the molar value.
# Assays:
# HLA-A*02:03 [1] = assay: IEDB peptide-MHC binding, purified MHC/direct/fluorescence; filed as Kd, often an IC50 or EC50 that approximates it; ≥ and ≤ were set here for values at or beyond the usual limits of such assays; conditions: source organism: Zaire ebolavirus
# HLA-A*02:11 [2] = assay: as above; conditions: source organism: Zaire ebolavirus
# HLA-A*02:12 [3] = assay: as above; conditions: source organism: Zaire ebolavirus
# HLA-A*02:16 = assay: as above; conditions: source organism: Zaire ebolavirus
# HLA-A*02:19 [4] = assay: as above; conditions: source organism: Zaire ebolavirus
# HLA-A*03:01 [5] = assay: as above; conditions: source organism: Zaire ebolavirus
# HLA-A*68:02 [6] = assay: as above; conditions: source organism: Zaire ebolavirus
# HLA-B*07:02 = assay: as above; conditions: source organism: Sudan ebolavirus - Maleo (1979)
# HLA-A*02:01 = assay: IEDB peptide-MHC binding, purified MHC/competitive/fluorescence; filed as Kd, often an IC50 or EC50 that approximates it; ≥ and ≤ were set here for values at or beyond the usual limits of such assays
# HLA-A*26:01 = assay: as above
# HLA-A*69:01 = assay: as above; conditions: source organism: Zaire ebolavirus
# HLA-B*15:01 = assay: as above
# HLA-B*15:17 = assay: as above; conditions: source organism: Zaire ebolavirus
# HLA-B*18:01 = assay: as above
# HLA-B*27:03 = assay: as above
# HLA-B*39:01 = assay: as above
# HLA-B*46:01 = assay: as above
# HLA-B*51:01 = assay: as above
# HLA-B*57:01 = assay: as above
# HLA-A*02:03 [7] = assay: as above; conditions: source organism: Vibrio cholerae 2740-80
# HLA-A*02:11 [8] = assay: as above; conditions: source organism: Vibrio cholerae 2740-80
# HLA-A*02:12 [9] = assay: as above; conditions: source organism: Vibrio cholerae 2740-80
# HLA-A*02:19 [10] = assay: as above; conditions: source organism: Vibrio cholerae 2740-80
# HLA-A*03:01 [11] = assay: as above; conditions: source organism: Vibrio cholerae 2740-80
# HLA-A*24:03 = assay: as above; conditions: source organism: Vibrio cholerae 2740-80
# HLA-A*29:02 = assay: as above; conditions: source organism: Vibrio cholerae 2740-80
# HLA-C*03:03 = assay: IEDB peptide-MHC binding, purified MHC/direct/fluorescence; filed as Kd, often an IC50 or EC50 that approximates it; ≥ and ≤ were set here for values at or beyond the usual limits of such assays; conditions: source organism: Vaccinia virus WR
# HLA-A*02:02 = assay: IEDB peptide-MHC binding, purified MHC/competitive/radioactivity; filed as Kd, often an IC50 or EC50 that approximates it; ≥ and ≤ were set here for values at or beyond the usual limits of such assays; conditions: source organism: Vaccinia virus WR
# HLA-A*02:03 [12] = assay: as above; conditions: source organism: Vaccinia virus WR
# HLA-A*02:06 = assay: as above; conditions: source organism: Vaccinia virus WR
# HLA-A*68:02 [13] = assay: as above; conditions: source organism: Vaccinia virus WR
# HLA-C*06:02 = assay: IEDB peptide-MHC binding, purified MHC/direct/fluorescence; filed as Kd, often an IC50 or EC50 that approximates it; ≥ and ≤ were set here for values at or beyond the usual limits of such assays; conditions: source organism: human gammaherpesvirus 4
# [14] = source organism: Zaire ebolavirus
# [15] = source organism: Vibrio cholerae 2740-80
sequence,measurement,setting,value
TPSGKRLQI,pKd,HLA-A*02:03 [1],≤ 4.70
same,pKd,HLA-A*02:11 [2],≤ 4.70
same,pKd,HLA-A*02:12 [3],≤ 4.70
same,pKd,HLA-A*02:16,≤ 4.70
same,pKd,HLA-A*02:19 [4],≤ 4.70
same,pKd,HLA-A*03:01 [5],≤ 4.70
same,pKd,HLA-A*68:02 [6],≤ 4.70
same,pKd,HLA-B*07:02,7.45
same,pKd,HLA-A*02:01; [14],≤ 4.70
same,pKd,HLA-A*26:01; [14],≤ 4.70
same,pKd,HLA-A*69:01,≤ 4.70
same,pKd,HLA-B*15:01; [14],≤ 4.70
same,pKd,HLA-B*15:17,≤ 4.70
same,pKd,HLA-B*18:01; [14],≤ 4.70
same,pKd,HLA-B*27:03; [14],≤ 4.70
same,pKd,HLA-B*39:01; [14],≤ 4.70
same,pKd,HLA-B*46:01; [14],≤ 4.70
same,pKd,HLA-B*51:01; [14],≤ 4.70
same,pKd,HLA-B*57:01; [14],≤ 4.70
YEPEMQAQV,pKd,HLA-A*02:01; [15],≤ 4.70
same,pKd,HLA-A*02:03 [7],≤ 4.70
same,pKd,HLA-A*02:11 [8],≤ 4.70
same,pKd,HLA-A*02:12 [9],≤ 4.70
same,pKd,HLA-A*02:19 [10],6.07
same,pKd,HLA-A*03:01 [11],≤ 4.70
same,pKd,HLA-A*24:03,≤ 4.70
same,pKd,HLA-A*26:01; [15],≤ 4.70
same,pKd,HLA-A*29:02,≤ 4.70
same,pKd,HLA-B*15:01; [15],≤ 4.70
same,pKd,HLA-B*18:01; [15],≤ 4.70
same,pKd,HLA-B*27:03; [15],≤ 4.70
same,pKd,HLA-B*39:01; [15],≤ 4.70
same,pKd,HLA-B*46:01; [15],≤ 4.70
same,pKd,HLA-B*51:01; [15],≤ 4.70
same,pKd,HLA-B*57:01; [15],≤ 4.70
YIYGIPLSL,pKd,HLA-C*03:03,≥ 9.00
same,pKd,HLA-A*02:02,6.34
same,pKd,HLA-A*02:03 [12],4.88
same,pKd,HLA-A*02:06,4.94
same,pKd,HLA-A*68:02 [13],5.73
YRTATLRTL,pKd,HLA-C*06:02,8.05
